In the assay the target is chimeric H5 Env: Env_(HXB2) with the V3 loop of Env_(SF162) (HIV-1 strain HXB2 | HIV-1 strain SF162) (UniProt P04578).

Regarding “Human soluble CD4-183 (sCD4-183) two-domain protein (domain or fragment)”, the inhibition by sCD4 of the infectivity of HIV-1 pseudotyped with Env (titration, Fig 3A); loss of potency against H4 Env is greater than 50 fold and the sCD4-induced gp120 shedding from Env-expressing HEK293T cells (Fig 3B); shift of the sCD4 dependence against H4 Env was greater than 10 fold.

(Values after paper PMC9154124.)
